Measurements from PMC1390689.

Target: T1, GSThPif1ΔN (Homo sapiens, UniProt Q9H611 167-641)
T1 sequence: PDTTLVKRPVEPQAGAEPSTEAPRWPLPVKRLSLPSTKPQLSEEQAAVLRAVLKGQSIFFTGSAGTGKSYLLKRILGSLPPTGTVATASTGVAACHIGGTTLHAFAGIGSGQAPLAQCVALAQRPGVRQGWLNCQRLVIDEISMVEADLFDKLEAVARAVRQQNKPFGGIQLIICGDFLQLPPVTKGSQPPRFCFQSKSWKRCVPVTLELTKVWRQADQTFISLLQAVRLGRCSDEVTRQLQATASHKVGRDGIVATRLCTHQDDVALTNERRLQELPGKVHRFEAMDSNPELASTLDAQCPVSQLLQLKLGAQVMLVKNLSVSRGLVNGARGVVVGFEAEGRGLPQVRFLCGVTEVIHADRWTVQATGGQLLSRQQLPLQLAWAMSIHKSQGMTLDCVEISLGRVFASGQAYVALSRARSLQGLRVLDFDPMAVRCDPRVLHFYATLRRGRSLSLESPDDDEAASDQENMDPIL
Assay: EMSA

TTAGGGTTAGGGTTAGGG (ssDNA) [tel18]
binding result: binds
